Here are results for nine molecules from patent publication US20180155451A1 (published 2018).

Assay [1] addresses T1, FcγRIIb extracellular domain with C-terminal His tag (human, UniProt P31994 43-217).
T1 construct: extracellular domain; Soluble receptor expressed in FreeStyle293 cells, used as analyte in Biacore; also called FcgRIIb; CD32B; not shown: His tag at the C terminus
T1 sequence (looked up): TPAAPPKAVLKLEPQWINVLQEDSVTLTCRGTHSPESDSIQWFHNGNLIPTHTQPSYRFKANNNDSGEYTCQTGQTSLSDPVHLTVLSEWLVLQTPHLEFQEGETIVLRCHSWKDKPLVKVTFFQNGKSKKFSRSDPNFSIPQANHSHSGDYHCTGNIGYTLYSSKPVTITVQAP
In words: SPR (Biacore), antibody captured via antigen peptide, FcγR as analyte; binding relative to GpH7-A5/GpH7-B3/GpL16-k0 = 100. (In general: Surface plasmon resonance follows binding to a sensor surface in real time, without labels.)

In assay [2] the target is T2, FcγRIa extracellular domain with C-terminal His tag (human, UniProt P12314 16-292).
T2 construct: extracellular domain; Soluble receptor expressed in FreeStyle293 cells, used as analyte in Biacore; also called FcgRI; CD64; not shown: His tag at the C terminus
T2 sequence (P12314 16-292): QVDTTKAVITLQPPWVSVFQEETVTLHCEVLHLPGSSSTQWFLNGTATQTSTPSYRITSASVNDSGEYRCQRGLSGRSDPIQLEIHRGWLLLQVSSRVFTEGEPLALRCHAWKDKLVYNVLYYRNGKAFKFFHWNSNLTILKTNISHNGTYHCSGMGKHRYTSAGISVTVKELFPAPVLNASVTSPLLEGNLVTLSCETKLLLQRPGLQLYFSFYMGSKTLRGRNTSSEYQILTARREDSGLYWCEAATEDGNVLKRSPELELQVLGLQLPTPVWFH
Described as above.

Assay [3] concerns the target T3, FcγRIa (human, UniProt P12314 16-292).
T3 construct: extracellular domain; also called FcgRI; 1a; not shown: His tag at the C terminus
In words: SPR (Biacore), antibody captured, FcγR as analyte; binding as % of GpH7-A5/GpH7-B3/GpL16-k0.

The target of assay [4] is T4, FcγRIIb (human, UniProt P31994 43-217).
T4 construct: extracellular domain; also called FcgRIIb; 2b; not shown: His tag at the C terminus
T4 sequence (looked up): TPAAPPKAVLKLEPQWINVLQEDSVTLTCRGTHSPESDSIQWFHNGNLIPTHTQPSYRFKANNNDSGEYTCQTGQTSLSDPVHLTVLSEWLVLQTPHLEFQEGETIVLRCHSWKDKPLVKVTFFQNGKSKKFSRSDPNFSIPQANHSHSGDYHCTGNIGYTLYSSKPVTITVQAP
The description is as above.

T3 sequence (P12314 16-292): as the sequence (P12314 16-292) above

B1: GpH7-A5/GpH7-B3 variant Q295_06M/GpL16-k0 (antibody, human IgG1, kappa)
heavy 1: not shown
heavy 2: not shown
light: DIVMTQSPLSLPVTPGEPASISCQASESLVHSNRNTYLHWYLQKPGQSPQLLIYKVSNRFSGVPDRFSGSGSGTDFTLKISRVEAEDVGVYYCSQNTHVPPTFGQGTKVEIERTVAAPSVFIFPPSDEQLKSGTASVVCLLNNFYPREAKVQWKVDNALQSGNSQESVTEQDSKDSTYSLSSTLTLSKADYEKHKVYACEVTHQGLSSPVTKSFNRGEC
notes: Heterodimerized anti-glypican-3 IgG1; substitution in only one H chain; also called Q295M; He Ab
As to B1, the He/Con_2b in assay [1] is 90.4 % of control (GpH7-A5/GpH7-B3/GpL16-k0 = 100). Further, in assay [2], the He/Con_1a is 104 % of control (GpH7-A5/GpH7-B3/GpL16-k0 = 100).

B2: GpH7-A5/GpH7-B3 variant P271_15Y/GpL16-k0 (antibody, human IgG1, kappa)
heavy 1: not shown
heavy 2: not shown
light: DIVMTQSPLSLPVTPGEPASISCQASESLVHSNRNTYLHWYLQKPGQSPQLLIYKVSNRFSGVPDRFSGSGSGTDFTLKISRVEAEDVGVYYCSQNTHVPPTFGQGTKVEIERTVAAPSVFIFPPSDEQLKSGTASVVCLLNNFYPREAKVQWKVDNALQSGNSQESVTEQDSKDSTYSLSSTLTLSKADYEKHKVYACEVTHQGLSSPVTKSFNRGEC
notes: Heterodimerized anti-glypican-3 IgG1; substitution in only one H chain; also called P271Y; He Ab
Consider B2, for which the He/Con_2b in assay [1] was 52.3 % of control (GpH7-A5/GpH7-B3/GpL16-k0 = 100). Further, in assay [2], the He/Con_1a was 103 % of control (GpH7-A5/GpH7-B3/GpL16-k0 = 100).

B3: GpH7-A5/GpH7-B3 variant P331_07I/GpL16-k0 (antibody, human IgG1, kappa)
heavy 1: not shown
heavy 2: not shown
light: DIVMTQSPLSLPVTPGEPASISCQASESLVHSNRNTYLHWYLQKPGQSPQLLIYKVSNRFSGVPDRFSGSGSGTDFTLKISRVEAEDVGVYYCSQNTHVPPTFGQGTKVEIERTVAAPSVFIFPPSDEQLKSGTASVVCLLNNFYPREAKVQWKVDNALQSGNSQESVTEQDSKDSTYSLSSTLTLSKADYEKHKVYACEVTHQGLSSPVTKSFNRGEC
notes: heterodimerized IgG1; alteration in the GpH7-B3 H chain only; also called He Ab
Turning to B3, in assay [3], the He/Con_1a was 93.4 % of control. Besides, in assay [4], the He/Con_2b was 114 % of control.

B4: GpH7-A5/GpH7-B3 variant Q295_07I/GpL16-k0 (antibody, human IgG1, kappa)
heavy 1: not shown
heavy 2: not shown
light: DIVMTQSPLSLPVTPGEPASISCQASESLVHSNRNTYLHWYLQKPGQSPQLLIYKVSNRFSGVPDRFSGSGSGTDFTLKISRVEAEDVGVYYCSQNTHVPPTFGQGTKVEIERTVAAPSVFIFPPSDEQLKSGTASVVCLLNNFYPREAKVQWKVDNALQSGNSQESVTEQDSKDSTYSLSSTLTLSKADYEKHKVYACEVTHQGLSSPVTKSFNRGEC
notes: Heterodimerized anti-glypican-3 IgG1; substitution in only one H chain; also called Q295I; He Ab
For the molecule B4, in assay [1], the He/Con_2b is 84.3 % of control (GpH7-A5/GpH7-B3/GpL16-k0 = 100). For the same molecule, the He/Con_1a in assay [2] was 103 % of control (GpH7-A5/GpH7-B3/GpL16-k0 = 100).

B5: GpH7-A5/GpH7-B3 variant A327_18N/GpL16-k0 (antibody, human IgG1, kappa)
heavy 1: not shown
heavy 2: not shown
light: DIVMTQSPLSLPVTPGEPASISCQASESLVHSNRNTYLHWYLQKPGQSPQLLIYKVSNRFSGVPDRFSGSGSGTDFTLKISRVEAEDVGVYYCSQNTHVPPTFGQGTKVEIERTVAAPSVFIFPPSDEQLKSGTASVVCLLNNFYPREAKVQWKVDNALQSGNSQESVTEQDSKDSTYSLSSTLTLSKADYEKHKVYACEVTHQGLSSPVTKSFNRGEC
notes: as for B3
Take B5: the He/Con_1a in assay [3] is 97.7 % of control. In assay [4], the He/Con_2b was 113 % of control.

B6: GpH7-A5/GpH7-B3 variant Q295_02A/GpL16-k0 (antibody, human IgG1, kappa)
heavy 1: not shown
heavy 2: not shown
light: DIVMTQSPLSLPVTPGEPASISCQASESLVHSNRNTYLHWYLQKPGQSPQLLIYKVSNRFSGVPDRFSGSGSGTDFTLKISRVEAEDVGVYYCSQNTHVPPTFGQGTKVEIERTVAAPSVFIFPPSDEQLKSGTASVVCLLNNFYPREAKVQWKVDNALQSGNSQESVTEQDSKDSTYSLSSTLTLSKADYEKHKVYACEVTHQGLSSPVTKSFNRGEC
notes: Heterodimerized anti-glypican-3 IgG1; substitution in only one H chain; also called Q295A; He Ab
B6: the He/Con_2b in assay [1] is 79.7 % of control (GpH7-A5/GpH7-B3/GpL16-k0 = 100). Besides, the He/Con_1a in assay [2] was 104 % of control (GpH7-A5/GpH7-B3/GpL16-k0 = 100).

B7: GpH7-A5/GpH7-B3 variant Q295_04F/GpL16-k0 (antibody, human IgG1, kappa)
heavy 1: not shown
heavy 2: not shown
light: DIVMTQSPLSLPVTPGEPASISCQASESLVHSNRNTYLHWYLQKPGQSPQLLIYKVSNRFSGVPDRFSGSGSGTDFTLKISRVEAEDVGVYYCSQNTHVPPTFGQGTKVEIERTVAAPSVFIFPPSDEQLKSGTASVVCLLNNFYPREAKVQWKVDNALQSGNSQESVTEQDSKDSTYSLSSTLTLSKADYEKHKVYACEVTHQGLSSPVTKSFNRGEC
notes: Heterodimerized anti-glypican-3 IgG1; substitution in only one H chain; also called Q295F; He Ab
In the case of B7, the He/Con_2b in assay [1] is 64.7 % of control (GpH7-A5/GpH7-B3/GpL16-k0 = 100). Further, in assay [2], the He/Con_1a is 102 % of control (GpH7-A5/GpH7-B3/GpL16-k0 = 100).

B8: GpH7-A5/GpH7-B3 variant P331_06M/GpL16-k0 (antibody, human IgG1, kappa)
heavy 1: not shown
heavy 2: not shown
light: DIVMTQSPLSLPVTPGEPASISCQASESLVHSNRNTYLHWYLQKPGQSPQLLIYKVSNRFSGVPDRFSGSGSGTDFTLKISRVEAEDVGVYYCSQNTHVPPTFGQGTKVEIERTVAAPSVFIFPPSDEQLKSGTASVVCLLNNFYPREAKVQWKVDNALQSGNSQESVTEQDSKDSTYSLSSTLTLSKADYEKHKVYACEVTHQGLSSPVTKSFNRGEC
notes: as for B3
B8: the He/Con_1a in assay [3] was 93.6 % of control. Besides, in assay [4], the He/Con_2b was 102 % of control.

B9: GpH7-A5/GpH7-B3 variant P271_18N/GpL16-k0 (antibody, human IgG1, kappa)
heavy 1: not shown
heavy 2: not shown
light: DIVMTQSPLSLPVTPGEPASISCQASESLVHSNRNTYLHWYLQKPGQSPQLLIYKVSNRFSGVPDRFSGSGSGTDFTLKISRVEAEDVGVYYCSQNTHVPPTFGQGTKVEIERTVAAPSVFIFPPSDEQLKSGTASVVCLLNNFYPREAKVQWKVDNALQSGNSQESVTEQDSKDSTYSLSSTLTLSKADYEKHKVYACEVTHQGLSSPVTKSFNRGEC
notes: Heterodimerized anti-glypican-3 IgG1; substitution in only one H chain; also called P271N; He Ab
Take B9: the He/Con_2b in assay [1] was 93.3 % of control (GpH7-A5/GpH7-B3/GpL16-k0 = 100). Moreover, the He/Con_1a in assay [2] was 103 % of control (GpH7-A5/GpH7-B3/GpL16-k0 = 100).
